Results: US20050208042A1 (GENETICS INSTITUTE, published 2005)
Blank lines part the entries; values can stand above or below the binder they belong to.

Tests used:
[1] = target: T1, human B7-1 (CD80) expressed on the cell surface (CHO/hB7-1 cells) (human, UniProt P33681 35-288); assay: cell-based or functional assay
T1 sequence (looked up): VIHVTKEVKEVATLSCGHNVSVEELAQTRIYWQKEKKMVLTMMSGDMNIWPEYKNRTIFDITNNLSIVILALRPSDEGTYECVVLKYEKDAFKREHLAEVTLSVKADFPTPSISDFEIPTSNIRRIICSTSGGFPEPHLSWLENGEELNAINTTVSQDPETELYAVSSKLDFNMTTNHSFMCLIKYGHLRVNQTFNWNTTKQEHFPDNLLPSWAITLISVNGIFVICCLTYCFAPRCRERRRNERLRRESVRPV

[2] = target: T2, human B7-2 (CD86) expressed on the cell surface (CHO/hB7-2 cells) (human, UniProt P42081 24-329); assay: 125I direct binding, CHO cells expressing hB7-2 as control for non-specific binding
T2 construct: whole, on cells; Also used for native B7-2 on human PBL in the MLR row under functional; also called rhB7-2
T2 sequence (looked up): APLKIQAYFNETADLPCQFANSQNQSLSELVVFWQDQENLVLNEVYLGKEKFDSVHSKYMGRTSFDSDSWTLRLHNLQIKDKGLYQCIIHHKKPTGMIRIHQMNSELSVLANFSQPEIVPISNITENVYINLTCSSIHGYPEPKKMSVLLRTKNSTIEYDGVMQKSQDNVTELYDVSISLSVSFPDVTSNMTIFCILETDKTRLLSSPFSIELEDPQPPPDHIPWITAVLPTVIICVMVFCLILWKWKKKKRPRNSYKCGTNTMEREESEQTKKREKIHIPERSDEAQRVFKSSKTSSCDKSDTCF

[3] = target: T3, human B7-1Ig (recombinant soluble hB7-1Ig) (human, UniProt P33681 35-242); assay: SPR (BIACORE), hB7-1Ig immobilized, bivalent model, mean of three runs
T3 construct: extracellular domain; Secreted by CHO cells, purified on protein A, immobilized on the BIACORE chip; not shown: hinge-CH2-CH3 domains of human IgG1 heavy chain
T3 sequence (looked up): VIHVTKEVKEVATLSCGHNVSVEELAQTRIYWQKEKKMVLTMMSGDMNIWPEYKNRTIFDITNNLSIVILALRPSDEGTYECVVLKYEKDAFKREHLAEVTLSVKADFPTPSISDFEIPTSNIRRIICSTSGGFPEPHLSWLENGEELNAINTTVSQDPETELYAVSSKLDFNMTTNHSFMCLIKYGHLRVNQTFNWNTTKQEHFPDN
Experimental: (§1) The BIACORE® biosensor (BIACORE®, Uppsalla, Sweden) was used to determine binding kinetics of murine and humanized anti-B7-1 monoclonal antibodies to human B7-1Ig (hB7-1Ig) protein. Human B7-1Ig was immobilized onto the dextran matrix of a BIACORE® sensor chip. Humanized and murine anti-B7-1 mAbs were tested at 200, 100, 50, and 20 nM on the immobilized hB7-1Ig. Each mAb dilution was tested 4 times per run and a total of three separate runs were performed. Anti-human B7-1Ig binding was measured in real time by Surface Plasmon Resonance (SPR) and global analysis was performed using the bivalent binding model in BIA evaluation software (Version 3.1). For each sample, the association (kₐ) dissociation (kd) and equilibrium dissociation constant (KD) were determined.

[4] = target: T1, human B7-1 (CD80) expressed on the cell …; assay: direct binding of 125I-labeled antibody to CHO/hB7-1 cells, nonspecific binding (CHO cells with hB7-2) subtracted
Experimental: Binding assays were begun by plating CHO/hB7-1 cells onto 96 well tissue culture plates at 10,000 cells/well in complete medium and the plates incubated at 37° C. for two days. Adherent cells were washed gently with assay buffer (PBS containing nonfat dry milk and sodium azide). Murine and humanized anti-B7-1 mAbs labeled with ¹²⁵I were serially diluted in assay buffer and incubated with the cells overnight at 4° C. to allow biding to reach equilibrium. Unbound labeled antibody was removed from the cells by a series of gentle washings with assay buffer and the bound ¹²⁵I-labeled antibody was detected using a ¹²⁵I scintillant and detector system. Non-specific binding was determined for each dilution of labeled antibody in an identical manner as described above except that the target CHO cells expressed hB7-2 which is not bound by either the murine or humanized anti-B7-1 mAbs.
The mean value of triplicate determinations minus the non-specific binding was calculated and fit to a hyperbolic saturation binding curve using Graphpad Prism software. […] Both murine and humanized anti-B7-1 mAbs recognize cell surface expressed human B7-1.

[5] = target: T1, human B7-1 (CD80) expressed on the cell …; assay: competitive binding against 125I-murine anti-B7-1 on CHO/hB7-1 cells; humanized anti-B7-1 mAb
Experimental: (§2) The relative affinities of the murine and humanized anti-B7-1 (1F1) antibodies for the B7-1 antigen were determined by competitive binding assays. Three-fold serial dilutions of the unlabeled murine or humanized anti-B7-1 mAbs were mixed with a fixed amount of radio-labeled murine anti-B7-1 mAb (¹²⁵I-anti-B7-1, 2800 cpm/fmol; 40,000-50,000 cpm/test in PBS containing 2% fetal calf serum). 1×10⁵ CHO/hB7-1 cells expressing hB7-1 on their surface were added subsequently and the mixture (total volume=200 μL) incubated for 2 hrs at 4° C. with gentle shaking. The cell antibody mixture was then transferred to Sarstedt Micro tubes (Part # 72.702) containing 100 μL of 80% dibutyl phthlate-20% olive oil. After centrifugation in a microfuge, the Sarstedt tubes were plunged into dry ice for several minutes. Cell bound ¹²⁵I-labeled mAb was determined by clipping the cell pellet containing tips of each tube into scintillation vials and counting in a gamma counter. Bound and free counts were determined. The bound counts were plotted against the concentration of the cold competitor mAbs.

[6] = target: T1, human B7-1 (CD80) expressed on the cell …; assay: competition binding on CHO/hB7-1 cells: unlabeled competitor against 125I-murine anti-B7-1 tracer, bound cpm
Experimental: as §2

[7] = target: T1, human B7-1 (CD80) expressed on the cell …; assay: competitive binding against 125I-murine anti-B7-1 on CHO/hB7-1 cells; murine anti-B7-1 mAb
Experimental: as §2

[8] = target: T3, human B7-1Ig (recombinant soluble …); assay: SPR (BIACORE), hB7-1Ig immobilized
Experimental: as §1

[9] = target: T1, human B7-1 (CD80) expressed on the cell …; assay: competitive binding against 125I-humanized 1F1 on CHO cells expressing rhB7-1
Experimental: (§3) The affinity of the mouse and humanized 1F1 antibodies for the B7-1 antigen was determined by competitive binding with radio-iodinated humanized 1F1 antibody. Three-fold serial dilutions of unlabeled mouse or humanized 1F1 antibodies were mixed with a fixed amount of radio-iodinated humanized 1F1 antibody (40,000-50,000 cpm per test) in PBS containing 2% fetal calf serum, 0.1% sodium azide. 3×10⁴ CHO cells expressing cell surface rhB7-1 were added subsequently and the mixture (in a total volume of 200 μL) was incubated for 2 hr at 4° C. with gentle shaking. The cell-antibody suspension was then transferred to Sarstedt Micro Tubes (part #72.702) containing 100 μL of 80% dibutyl phthalate-20% olive oil. After centrifugation in a microfuge, the Sarstedt tubes were plunged into dry ice for several minutes. Cell-bound ¹²⁵I was determined by clipping the tips of each tube (containing cell pellets) into scintillation vials and counting in a gamma counter. Bound and free counts were determined and the ratio plotted against the concentrations of the cold competitor antibodies according to the method of Berzofsky and Berkower (J. A. Berzofsky and I. J. Berkower, in Fundamental Immunology, W. E. Paul, Raven Press, New York, pp. 595-644 (1984)).

[10] = target: T1, human B7-1 (CD80) expressed on the cell …; assay: competition binding on CHO cells expressing rhB7-1: unlabeled competitor against 125I-humanized 1F1 tracer, bound/free ratio
Experimental: as §3

IC50 of inhibition of CD28+ human T cell proliferation stimulated with PMA and CHO/hB7-1 cells [1]: 0.11 nM | binding result [2]: no binding | Kd [3]: 2.8 nM | EC50 (read off the curve) [4]: ~1 nM | Kd [5]: ~1 nM | IC50 (read off the curve) [6]: ~2 nM
B1: humanized anti-B7-1 mAb (humanized 1F1), isotype not stated in the example (antibody, V domains shown)
VH: EVQLVQSGAEVKKPGASVKVSCKPSGFNIKDYYMHWVRQAPGQGLEWIGWIDPENGNTLYDPKFQGKATITADTSTSTAYMELSSLRSEDTAVYYCAREGLFFAYWGQGTLVTVSS
VL: DIQMTQSPSSLSASVGDRVTITCSVSSSISSSNLHWYQQKPGKAPKPLIYGTSNLASGVPSRFSGSGSGTDYTLTISSLQPEDVATYYCQQWSSYPLTFGQGTKVEIK
notes: Same variable regions as m8; also called hu1F1

IC50 of inhibition of CD28+ human T cell proliferation stimulated with PMA and CHO/hB7-1 cells [1]: 0.22 nM | Kd [7]: ~1 nM | binding result [2]: no binding | Kd [3]: 0.56 nM | fold higher binding affinity than the humanized anti-B7-1 mAb [8]: 5 fold | Ka [9]: ~1e+09 M⁻¹ | IC50 (read off the curve) [6]: ~1 nM | IC50 (read off the curve) [10]: ~1 nM
B2: murine 1F1 monoclonal antibody (murine anti-human B7-1 mAb) (antibody, V domains shown)
VH: EVHLQQSGAELVRPGALVKLSCKPSGFNIKDYYMHWVKQRPEQGLEWIGWIDPENGNTLYDPKFQGKASITADTSSNTAYLQLSSLTSEDTAVYYCAREGLFFAYWGQGTPVTVSA
VL: EIVLTQSPALMAASPGEKVTITCSVSSSISSSNLHWYQQKSETSPKPWIYGTSNLASGVPVRFSGSGSGTSYSLTISSMEAEDAATYYCQQWSSYPLTFGAGTKLELK
notes: Hybridoma mouse antibody with kappa light chain; also called mouse 1F1; murine anti-B7-1
